Test results as given in US20050238649A1.

Target: human HER2 (ErbB2) receptor (human) (UniProt P04626)
Assay: cell-based or functional assay

Row | IC50, cell proliferation assay (CellTiter-Glo), BT474 cells [µg ADC/ml] | IC50, cell proliferation assay (CellTiter-Glo), SK-BR-3 cells [µg ADC/ml] | maximum inhibition of cell proliferation of SK-BR-3 cells [%] | Substance
1 | 0.04 | 0.02 |  | 4D5 Fab-MC-vc-PAB-MMAF, 1.5 MMAF/Ab
2 |  |  | 66 | murine monoclonal antibody 4D5
